Measurements published in patent publication US20020115167A1 (published 2002).

Experiments:
[1] = molecular target: T1, GST-fusion protein containing the C-terminal domain of Dsh (Drosophila, UniProt P51140 395-623); assay: GST-fusion pull-down from Drosophila embryo lysates, in vitro kinase assay
T1 construct: domain: C-terminal; not shown: glutathione-S-transferase (GST) fusion partner
T1 sequence (looked up): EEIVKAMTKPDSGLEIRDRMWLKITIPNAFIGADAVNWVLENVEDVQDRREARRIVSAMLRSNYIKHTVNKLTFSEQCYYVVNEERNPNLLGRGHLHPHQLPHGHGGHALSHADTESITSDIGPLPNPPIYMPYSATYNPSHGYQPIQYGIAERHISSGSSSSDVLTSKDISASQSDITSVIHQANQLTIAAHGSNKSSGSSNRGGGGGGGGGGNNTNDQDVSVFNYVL
Protocol: (§1) Dsh is known to be progressively phosphorylated in Drosophila during the stages of embryonic development known to require Wnt. The stoichiometry of this phosphorylation is high and supports the importance of this reaction. To identify the kinase that phosphorylates Dsh, various regions of Dsh were tested for their ability to physically interact with this kinase. Equal amounts of lysates prepared from staged Drosophila embryos were blotted with anti-Dsh antibody. Only the GST-fusion protein containing the middle (DM), but not the N-terminal or C-terminal domain of Dsh, interacted with this kinase activity from Drosophila embryos. The Dsh- associated kinase activity, which was precipitated with GST-DM, increased as Dsh became progressively phosphoylated during development.
(§2) To perform the kinase assay, the embryos or cells were lysed in lysis buffer (50 mM HEPES [pH 7.6], 100 mM NaCl, 0.5% Nonidet P-40, 10 mM NaF, 5 mM NaPPi, 1.5 mM MgCl₂, 1 mM EGTA, 10% glycerol, and protease inhibitors). Cleared cell lysates were incubated with GST fusion proteins immobilized on glutathione agarose beads for two to four hours at 4° C. The glutathione beads were washed three times with lysis buffer and once with kinase buffer (50 mM Tris [pH7.6], 10 mM MgCl₂). […]

[2] = molecular target: T2, GST-fusion protein containing the N-terminal domain of Dsh (Drosophila, UniProt P51140 1-166); assay: as above
T2 construct: domain: N-terminal; not shown: glutathione-S-transferase (GST) fusion partner
T2 sequence (looked up): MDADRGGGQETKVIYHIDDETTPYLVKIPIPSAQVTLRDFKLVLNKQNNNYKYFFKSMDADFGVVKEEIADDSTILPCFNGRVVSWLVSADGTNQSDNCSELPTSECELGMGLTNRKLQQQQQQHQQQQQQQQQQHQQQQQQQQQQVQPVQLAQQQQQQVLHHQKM
Protocol: as §1, §2

[3] = molecular target: T3, Dishevelled (Dsh) protein, Drosophila (Drosophila, UniProt P51140 1-623, progressively phosphorylated during development (sites not given)); assay: immunoprecipitation of Dsh from Drosophila embryos, in vitro kinase assay; the kinase was eluted with 700 mM NaCl
T3 construct: also called endogenous Dsh
T3 sequence (looked up): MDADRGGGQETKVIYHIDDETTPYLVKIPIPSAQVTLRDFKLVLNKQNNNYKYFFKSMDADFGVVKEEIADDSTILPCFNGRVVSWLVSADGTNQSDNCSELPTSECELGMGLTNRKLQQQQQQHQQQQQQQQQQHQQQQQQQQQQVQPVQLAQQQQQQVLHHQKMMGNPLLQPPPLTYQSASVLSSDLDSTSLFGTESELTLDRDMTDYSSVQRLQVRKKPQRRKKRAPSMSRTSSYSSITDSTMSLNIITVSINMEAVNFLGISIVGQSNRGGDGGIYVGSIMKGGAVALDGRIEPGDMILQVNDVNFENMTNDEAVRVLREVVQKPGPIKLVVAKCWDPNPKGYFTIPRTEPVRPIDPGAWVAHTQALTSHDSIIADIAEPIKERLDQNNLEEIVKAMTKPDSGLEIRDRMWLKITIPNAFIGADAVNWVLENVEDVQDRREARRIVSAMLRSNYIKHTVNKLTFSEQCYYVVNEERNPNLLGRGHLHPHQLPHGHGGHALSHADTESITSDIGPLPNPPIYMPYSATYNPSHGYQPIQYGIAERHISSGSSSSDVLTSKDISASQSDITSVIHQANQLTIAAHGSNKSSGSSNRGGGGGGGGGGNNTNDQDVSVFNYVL
Protocol: To clone the Dsh-associated kinase, Dsh was immunoprecipitated from Drosophila embryos with preimmune and affinity-purified immune serum, and subjected to an in vitro kinase assay or blotted with anti-Dsh serum. Dsh immunoprecipitates were washed with 700 mM NaCl to elute the associated kinase. The eluted kinase was recovered after dilution by precipitation with GST-fusion proteins. The kinase was purified 60,000-fold from Drosophila embryos and several peptide sequences were then used to clone the cDNA of this kinase. After screening a Drosophila embryo cDNA library with oligo probes designed based on peptide sequences, the cDNA that encodes the kinase was cloned. The cDNA clones encode a protein kinase that is homologous to the C. elegans protein PAR-1 (85% identity in the kinase domain and 42% identity overall). […] Importantly, the kinase activity that was precipitated using GST-DM increased as Dsh became progressively phosphorylated during development. The kinase activity was also present in Dsh immunoprecipitates.
as §2, with “C.” for “C. The glutathione beads were washed three times with lysis buffer and once with kinase buffer (50 mM Tris [pH7.6], 10 mM MgCl₂).”

B1: Drosophila PAR-1 (dPAR-1), the Dishevelled-associated kinase (enzyme)
chain: MSTAMRTTLQSVPEALPADSVSNGTASNVAAPAAPVSSATNAVPPLAAVSSTTATYATNSISTSSHSVKDQQQQQQQQQHDSANANIVSLPPTTTPVANTNTMMPIVTSSNSATSNSTAATPTPASGAAATGGVGSVSQGPATVSASAANTNHSHQHSHQHHHHVANNMTTDGARLSSNNSAVVASSAINHHHHHTPGSGVAPTVNKNVLSTHSAHPSAIKQRTSSAKGSPNMQMRSSAPMRWRATEEHIGKYKLIKTIGKGNFAKVKLAKHLPTGKEVAIKIIDKTQLNPGSLQKLFREVRIMKMLDHPNIVKLFQVIETEKTLYLIMEYASGGEVFDYLVLHGRMKEKEARVKFRQIVSAVQYCHQKRIIHRDLKAENLLLDSELNIKIADFGFSNEFTPGSKLDTFCGSPPYAAPELFQGKKYDGPEVDVWSLGVILYTLVSGSLPFDGSTLRELRERVLRGKYRIPFYMSTDCENLLRKFLVLNPAKRASLETIMGDKWMNMGFEEDELKPYIEPKADLADPKRIEALVAMGYNRSEIEASLSQVRYDDVFATYLLLGRKSTDPESDGSRSGSSLSLRNISGNDAGANAGSASVQSPTHRGVHRSISASSTKPSRRASSGAETLRVGPTNAAATVAAATGAVGAVNPSNNYNAAGSAADRASVGSNFKRQNTIDSATIKENTARLAAQNQRPASATQKMLTTADTTLNSPAKPRTATKYDPTNGNRTVSGTSGIIPRRSTTLYEKTSSTEKTNVIPAETKMASAVKSSRHFPRNVPSRSTFHSGQTRARNNTALEYSGTSGASGDSSHPGRMSFFSKLSSRFSKRPNQ
notes: Endogenous kinase from Drosophila embryo or Clone-8 cell lysates; In-gel bands of 110 kDa, 64 kDa and 130 kDa (minor) are said to be the kinase and its major fragment; also called Dsh-associated kinase; the kinase
[1]
  binding result: no binding
[2]
  binding result: no binding
[3]
  binding result: binds
